The record followed here is PMC4911930.

Assay [1] deals with Spt16 (human (endogenous in HeLa and U2OS)) (UniProt Q9Y5B9).
Another assay has as its target Spt16 952–955A (human) (UniProt Q9Y5B9). Briefly: pull-down; GST-tagged Spt16 fragments and alanine mutants as bait, CENP-T^HFD/-W as prey, GST alone as control; Coomassie gel; also with 1 M NaCl for 926–1047 (Supplemental Fig. S5a).
A further assay concerns the target Spt16 956–960A (human) (UniProt Q9Y5B9). The description is as above.
A further assay concerns the target CENP-T^HFD/-W complex (UniProt Q5EE01). Briefly: ITC; Spt16-CTD (amino acids 926–965; 2.2 mM) injected into 200 µL of 150 µM CENP-T/-W, human H2A/H2B or CENP S/X; 20°C; 20 mM Tris pH 7.5, 0.2 M NaCl; single-site model for CENP-T/-W, two-site model for H2A/H2B. For orientation: In ITC the heat of successive injections is recorded.

Sequence of CENP-T (Q96BT3 whole entry): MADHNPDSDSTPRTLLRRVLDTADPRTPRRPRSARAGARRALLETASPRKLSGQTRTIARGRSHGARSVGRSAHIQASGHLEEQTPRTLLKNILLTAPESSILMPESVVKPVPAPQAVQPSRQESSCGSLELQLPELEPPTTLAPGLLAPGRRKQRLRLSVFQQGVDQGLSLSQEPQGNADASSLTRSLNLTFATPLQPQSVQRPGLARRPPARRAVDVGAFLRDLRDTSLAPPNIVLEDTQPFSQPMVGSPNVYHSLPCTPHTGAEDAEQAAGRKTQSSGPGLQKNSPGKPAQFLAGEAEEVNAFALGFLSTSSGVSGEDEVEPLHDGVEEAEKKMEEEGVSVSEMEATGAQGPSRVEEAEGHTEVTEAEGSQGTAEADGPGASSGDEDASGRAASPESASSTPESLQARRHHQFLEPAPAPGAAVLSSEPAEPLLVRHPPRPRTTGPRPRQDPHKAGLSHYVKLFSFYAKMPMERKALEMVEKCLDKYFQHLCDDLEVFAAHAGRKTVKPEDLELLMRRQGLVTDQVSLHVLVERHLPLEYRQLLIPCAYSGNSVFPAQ

As to “CENP-T (from UniProt Q96BT3 1-561) (natural protein)”, the accumulation of endogenous CENP-T at the LacO locus in cells transfected with eGFP-LacI-Spt16 (immunofluorescence after 24 h) in assay [1] is 10 % of cells.

With “CENP-T^HFD/-W complex (from UniProt Q5EE01 1-88)”, the percent reduction of binding against unmutated Spt16 926–965 with Spt16 952–955A (human) is < 40%; in the assay with Spt16 956–960A (human), < 60%.

Usually Kd stands for the free concentration of one partner at which half of the binding sites on the other are occupied at equilibrium, for simple one-to-one binding. A high value points to weaker binding. Turning to “Spt16-CTD (Spt16 amino acids 926–965) (from UniProt Q9Y5B9 926-965) (domain or fragment)”, in the assay with CENP-T^HFD/-W complex, the Kd worked out at 6.3 µM.
